Assay results from article PMC7935965, “RNF8 ubiquitinates RecQL4 and promotes its dissociation from DNA double strand breaks” (Oncogenesis, 2021).
Blank lines part the entries; values can stand above or below the binder they belong to.

How the values were obtained:
[1] = molecular target: T1, recombinant Flag-RecQL4 (human, UniProt O94761 1-1208); test: pull-down; Flag-RecQL4 immobilised on M2 beads at 4 °C overnight, GST fusion proteins added at 4 °C for 4 h; GST-RNF8 with increasing input of GST-WRAP53β; western blot; conditions: both partners purified
T1 construct: also called purified Flag-RecQL4; source: E. coli (BL21 in the results; Rosetta (DE3) in the methods), IPTG-induced, purified
T1 sequence (looked up): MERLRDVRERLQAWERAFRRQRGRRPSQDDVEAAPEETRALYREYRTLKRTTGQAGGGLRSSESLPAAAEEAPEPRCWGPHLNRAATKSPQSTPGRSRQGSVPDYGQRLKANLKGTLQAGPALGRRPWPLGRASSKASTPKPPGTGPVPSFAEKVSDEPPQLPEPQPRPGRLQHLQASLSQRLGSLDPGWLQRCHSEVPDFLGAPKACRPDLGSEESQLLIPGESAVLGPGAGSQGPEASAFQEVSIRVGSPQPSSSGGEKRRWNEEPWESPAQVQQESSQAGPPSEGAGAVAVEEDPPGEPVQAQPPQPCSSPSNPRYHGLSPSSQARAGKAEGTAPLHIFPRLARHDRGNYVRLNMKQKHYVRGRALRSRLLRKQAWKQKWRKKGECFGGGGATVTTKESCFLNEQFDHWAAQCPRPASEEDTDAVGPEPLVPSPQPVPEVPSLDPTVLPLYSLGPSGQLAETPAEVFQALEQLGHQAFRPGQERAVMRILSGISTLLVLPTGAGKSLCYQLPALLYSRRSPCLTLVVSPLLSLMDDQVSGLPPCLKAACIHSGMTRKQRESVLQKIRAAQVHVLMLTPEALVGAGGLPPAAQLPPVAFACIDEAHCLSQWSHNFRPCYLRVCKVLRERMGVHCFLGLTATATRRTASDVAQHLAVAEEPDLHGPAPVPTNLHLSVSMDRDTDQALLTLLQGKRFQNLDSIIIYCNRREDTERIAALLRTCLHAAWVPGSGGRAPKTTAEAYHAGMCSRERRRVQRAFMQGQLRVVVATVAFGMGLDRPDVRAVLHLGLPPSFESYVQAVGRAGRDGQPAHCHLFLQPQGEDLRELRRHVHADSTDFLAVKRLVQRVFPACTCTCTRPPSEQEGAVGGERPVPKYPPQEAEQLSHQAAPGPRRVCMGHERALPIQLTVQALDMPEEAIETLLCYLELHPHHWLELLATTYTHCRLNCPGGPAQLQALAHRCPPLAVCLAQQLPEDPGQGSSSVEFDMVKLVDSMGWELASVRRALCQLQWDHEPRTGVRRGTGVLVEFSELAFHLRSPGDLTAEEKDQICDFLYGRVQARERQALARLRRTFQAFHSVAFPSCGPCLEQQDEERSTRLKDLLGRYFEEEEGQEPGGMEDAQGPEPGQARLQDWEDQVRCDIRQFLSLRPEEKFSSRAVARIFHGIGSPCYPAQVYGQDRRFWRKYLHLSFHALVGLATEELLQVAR

[2] = molecular target: T1, recombinant Flag-RecQL4; test: pull-down; GST fusion protein immobilised on glutathione Sepharose 4B at 4 °C overnight, incubated with purified Flag-RecQL4 at 4 °C for 4 h; western blot; conditions: both partners purified

binding result [1]: binds
B1: GST-RNF8 (natural protein, UniProt O76064-1 1-485, looked up)
chain: MGEPGFFVTGDRAGGRSWCLRRVGMSAGWLLLEDGCEVTVGRGFGVTYQLVSKICPLMISRNHCVLKQNPEGQWTIMDNKSLNGVWLNRARLEPLRVYSIHQGDYIQLGVPLENKENAEYEYEVTEEDWETIYPCLSPKNDQMIEKNKELRTKRKFSLDELAGPGAEGPSNLKSKINKVSCESGQPVKSQGKGEVASTPSDNLDPKLTALEPSKTTGAPIYPGFPKVTEVHHEQKASNSSASQRSLQMFKVTMSRILRLKIQMQEKHEAVMNVKKQTQKGNSKKVVQMEQELQDLQSQLCAEQAQQQARVEQLEKTFQEEEQHLQGLEIAQGEKDLKQQLAQALQEHWALMEELNRSKKDFEAIIQAKNKELEQTKEEKEKMQAQKEEVLSHMNDVLENELQCIICSEYFIEAVTLNCAHSFCSYCINEWMKRKIECPICRKDIKSKTYSLVLDNCINKMVNNLSSEVKERRIVLIRERKAKRLF
notes: RNF8; also called purified recombinant GST-RNF8; source: E. coli BL21, purified (GST beads)

binding result [2]: binds
B2: GST-WRAP53β (natural protein)
chain: not shown
notes: WRAP53β; also called purified recombinant GST-WRAP53β; source: E. coli, purified (GST beads)
